Publication PMC6858569

Target: mouse TRPV3 with the single residue substitution Y564A (mouse)
Experiment: cryo-EM structure

stoichiometry N: 4
Substance: mouse TRPV3 with the single residue substitution Y564A (natural protein)
